Measurements: patent publication US6121423, “Reshaped human antibody to human interleukin-6” (Chugai Seiyaku Kabushiki Kaisha, dated 2000)

Target: recombinant human IL-6 (human, UniProt P05231, biotinylated in the binding-inhibition assay (sites not given); unlabelled in the antigen-binding assay)
Assay: ELISA, IL-6 captured by MH166
Description: An ELISA plate for antigen-binding assay was prepared as follows. A 96-well plate was coated with mouse monoclonal antibody MH166 recognizing a different epitope of human IL-6 from that recognized by SK2 (Matsuda, T. et al., Eur. J. Immunol. 18, 951–956, 1988), and after blocking, recombinant human IL-6 was added thereto. A sample of the chimeric SK2 antibody was sequentially diluted, added to each well, and then an alkaline phosphatase-conjugated goat anti-human IgG antibody (Sigma) was added thereto. After incubation and washing, substrate was added, and absorbance at 405 nm was measured.

- binding result: binds
B1: chimeric SK2 antibody NTS (antibody, V domains shown)
VH: QVTLKESGPGILQPSQTLSLTCSFSGFSLSTSGMTVGWIRQPSGKGLEWLAHIWWNDDKYYNPALKGRLTISKDTSNNQVFLKIASVVTADTATYYCARMEDYDEAMDYWGQGTSVTVSS
VL: DIQMTQSPASLSVSVGETVTITCRASENIYSNLAWYQQKQGKSPQLLVYAATYLADGVPSRFSGSGSGTQYSLKINSLQSEDFGSYYCQHFWGTPPFGSGTKLEIK
